Experimental data from doi:10.1101/2022.08.03.502719.

Legend:
[1] = target: VL9 peptide HLA-E single chain trimer (soluble) (human); experiment: SPR
[2] = target: WN peptide HLA-E single chain trimer (soluble) (human); experiment: SPR

Kd [1] | Kd [2] | Substance
21.4 µM | 17.4 µM | CD94/NKG2C single-chain fusion protein (NKG2C ectodomain-GGSGGS-CD94 ectodomain), soluble, for SPR (from UniProt P26717 94-231; Q13241 32-179) (receptor)
8.2 µM | 41.5 µM | CD94/NKG2A single-chain fusion protein (NKG2A ectodomain-GGSGGS-CD94 ectodomain), soluble, for SPR (from UniProt P26715 94-233; Q13241 32-179) (receptor)
